One substance from patent US20200268855 can be followed below.

This data set concerns the target T1, ALDH1A2-His6 (UniProt O94788).
T1 sequence: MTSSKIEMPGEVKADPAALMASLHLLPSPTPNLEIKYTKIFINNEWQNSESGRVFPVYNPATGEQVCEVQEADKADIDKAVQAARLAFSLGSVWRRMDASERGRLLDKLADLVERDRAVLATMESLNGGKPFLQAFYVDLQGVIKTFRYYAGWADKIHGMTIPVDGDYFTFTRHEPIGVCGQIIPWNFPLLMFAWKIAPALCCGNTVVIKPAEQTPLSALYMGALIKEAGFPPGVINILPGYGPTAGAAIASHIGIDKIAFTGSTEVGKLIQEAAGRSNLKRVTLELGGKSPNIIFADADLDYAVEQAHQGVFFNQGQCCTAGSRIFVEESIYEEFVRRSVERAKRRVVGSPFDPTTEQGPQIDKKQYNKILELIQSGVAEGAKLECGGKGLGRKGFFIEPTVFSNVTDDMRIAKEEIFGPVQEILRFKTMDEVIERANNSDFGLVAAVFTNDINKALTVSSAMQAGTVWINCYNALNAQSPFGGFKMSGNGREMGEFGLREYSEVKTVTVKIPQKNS

Regarding human UBE3A protein, the “ubiquitination of ALDH1A2 in the reconstituted bacterial ubiquitination system (immunoblot)” value is listed as “the ALDH1A2 protein was highly ubiquitinated in the presence of UBE3A protein”.
